Measured values published in the nanobody polyreactivity screen of Harvey et al. (2022).

Assay: yeast display, Sf9 membrane polyspecificity reagent, FACS + sequencing; frameworks hold sequencing errors
In short: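 Galactose induction of a Saccharomyces cerevisiae BJ5465 synthetic nanobody display library ran 36–48 hours. The cells were then stained for 1 hour at 4 °C with 10% biotinylated, detergent-solubilized Sf9 membrane reagent, pulled down on streptavidin microbeads and FACS-sorted into low and high (top ~1%) gates on expression and reagent-binding fluorescence. Labels for polyreactivity follow the gate of origin.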

Sequence | polyreactivity (PSR sort gate)
QVQLVESGGGLVQAGGSLRLICAASGSILGTYAMGWYRQAPGKERELVAAITLSTDGTYYADSVKGRFTISRDNAKNTVYLQMNCLKPEDTAVYYFAAPWNWRWVTQWGYYVRADYYWGQGSQVTVSS | low polyreactivity
QVQLVESGGGLVQAGGSLRLICAASGSILNWYAMGWYRQAPGKERELVAAINRGTGTYYADSVKGRFTISRDNAKNTVYLQMISLKTEDTAVYYCAAEWYVYDFEFYYWGQGTQVTVSS | high polyreactivity
QVQLVESGGGLVQAGGSLRLICAASGSILQRNAMGWYRPAPGKERELVAAISWSGDNTYYADSVKGRFTISRDNAKNTVYLQMNSVKPEDTAVYYCATDADIYFQEYDYWGQGTQVTVSS | low polyreactivity
QVQLVESGGGLVQAGGSLRLICAASGSILVSYARGWYRQAPGKERELVAAITSGGRTKYADSVKGRFTISRDNAKNTVYLQMNSLKPEDNAVYYCAADDPLSYQFDYWGQGTQVTVSS | high polyreactivity
QVQLVESGGGLVQAGGSLRLICAASGSISVVNMGWYRQSPGKERELVASITSSGSTTYADSVKGRFTISRDNAKNTVYLQMNSVKPEDTAVYYCASDVGTDYTYQHPAGAAYDYWGQGTQVTVSS | low polyreactivity
QVQLVESGGGLVQAGGSLRLICAASGSNFWSYAMGWYRQAPGKERELVADITWSGGNTYADSVKGRFTISRDNAMNTVYLQMNSLKPEDTAVYYCAADPAHGTKWYVYPSHDDYWGQGTQVTVSS | low polyreactivity
QVQLVESGGGLVQAGGSLRLICAASGSNFYVYAMGWYRQAPGKERELVAAISDSGSRTYYADSVKGRFTISRDNAKNTVYLKKNSLKPEDTAVYYCAALTRRTGYTYKEYYWGQGTQVTVSS | high polyreactivity
QVQLVESGGGLVQAGGSLRLICAASGSTFAFYAMGWYRQAPGKERELVAAISRSGGRTYYADSVKGRFTISRDNAKNTVYLQMNSLKPEDTAVYYCAAPSRITTGPHREYDYWGQGTQVTVSS | high polyreactivity
QVQLVESGGGLVQAGGSLRLICAASGSTFAIYAMGWYRQAPGKERELVAAISWRTGSTYYADSVKGRFTISRDNAKNTVYLQMNSLKPEDTAVYYCAVRGRLQYSGGEGNYWGQGTQVTVSS | high polyreactivity
QVQLVESGGGLVQAGGSLRLICAASGSTFDGNVMGWYRQAPGKERELVADIDSGGSTNYADSVKGRFTISRDNAKNTVYLQMNSLKPEDTAFYYCNAEWDDSFIRWFRYRGNYWGQGTQVTVSS | low polyreactivity
QVQLVESGGGLVQAGGSLRLICAASGSTFDVNAMGWYRQAPGKEREFVAANSWSGGSTYYADSVKGRFTISRDIAKNTVYLQMNSLKPEDTAVYYCNADYVFKDGLGFRGLAGGDYWGQGTQVTVSS | low polyreactivity
QVQLVESGGGLVQAGGSLRLICAASGSTFDYYAKGWYRQATGKERELVASITWGDGSTYYADSVKGRFTISRDNAKNTVYLQRNSLKPEDTAVYYCNDDDTQLESYAPGHGYDYWGQGTQVTVSS | low polyreactivity
QVQLVESGGGLVQAGGSLRLICAASGSTFDYYAMGWYRQAPGKERELVAAISRRGGNTYYADSVKGRFTISRDNAKNTVYLQMNSLKQEDTAVYYCAAQTYKWYDWGHGTQVTVSS | high polyreactivity
QVQLVESGGGLVQAGGSLRLICAASGSTFFPYAMGWYRQAPGKERELVAGISSDGGTSYADSVKGRFTISRDNAKNTVYLQMNSLKPEDTAVYYCAAYYTHQPAHHYWGQGTQVTVSS | low polyreactivity
QVQLVESGGGLVQAGGSLRLICAASGSTFIPNAMGWYRQSPGKERELVAAISTGGSTNYADSVKGRFTISRDNAKNTVYLQINCLKPEDTAVYYCNARRGYYNPGRRFYYWGQGTQVTVSS | low polyreactivity
QVQLVESGGGLVQAGGSLRLICAASGSTFNSYTMGWYRQAPGKERELVAAISSGGITYYADSEKGRFTISRDNAKNTVYLLMNSLKPEDTAVYYCADRRYRYGYNYWGQGTQVTVSS | high polyreactivity
QVQLVESGGGLVQAGGSLRLICAASGSTFNTYAMGRYRQAPGKERELVAAITWSGGRTYYADSVKGRFTISRDNAKNTVYLQMNSLKPEDTAVYYCAKGKGPTEYDYWGQGTQVTVSS | high polyreactivity
QVQLVESGGGLVQAGGSLRLICAASGSTFSINAMGRYRQAPGKERELVAAITTSVDSTYYADSVKGRFTISRDNAKNTVYLQMNSLIPEDTAVYYCAVAFVQFNQYDYWGQGTQVTVSS | low polyreactivity
QVQLVESGGGLVQAGGSLRLICAASGSTFSSNAMGWYRQAPGKERELVAAISRSGVTTYYADSVKGRFTISRDNAKNTVYLQKHSLKPEDTAVYYCAAQPYSRRYGRYRGFQYKYEYWGQGTQVTVSS | low polyreactivity
QVQLVESGGGLVQAGGSLRLICAASGSTFTLYAMGWYRQAPGKERELVAAISGIGDSTYYADSVKGRFTISRDNAKNTVYLQMNSLKPEDTAVYYCAADGEYRYDWEYESWGQGTQVTVSS | low polyreactivity
QVQLVESGGGLVQAGGSLRLICAASGSTFVPNAMGGYRQAPGKERELVAAITASTGRTYYADSVKGRFTISRDNAKNTVYLQMNSLKPEDTAVYYCAAYFVYWSDLEHYYPVEYGYWGQGTQVTVSS | high polyreactivity
QVQLVESGGGLVQAGGSLRLICAASGSTFVPNAMGWYRQAPGKERELVAAITLSGVSTYYADSVKGRFTISRDNAKNTVYLQMNSLKPEETAVYYCAKDRPGWFHKYDYWGQGTQVTVSS | low polyreactivity

Sequence | polyreactivity (PSR sort gate)
QVQLVESGGGLVQAGGSLRLICAASGSTFWRYAMGWYRQAPGKERELVAAITGNGGRTYYADSVKGRFTISRDNAKNTVYLQMNSLKPEDTAVYYCAARYRGGVSVGYWGQGTQVTVSS | high polyreactivity
QVQLVESGGGLVQAGGSLRLICAASGSTFWYYAMGWYRTAPGKDRELVAAITYGGGSTYYADSVKGRFTISRDNAKNTVYLQMNSLKPEDTAVYYCAAQSYDYWYDYDYWGQGTQVTVSS | high polyreactivity
QVQLVESGGGLVQAGGSLRLICAASGSTFWYYSMGWYRQAPGKERELVAAITRAGSTNYADSVKGRFTISRDNAKNTVYLQMNSLKPEDTAVYYCAADQYHYWYYLGGYDYWGQGTQVTVSS | high polyreactivity
QVQLVESGGGLVQAGGSLRLICAASGSTFYPYDMGWYRQSPGKEWELVATISSGVSTNYADSVKGRFTISRDNAKNTVYLQMNSLKPEDTAVYYCAVDYFIGDDDYWGQGTLVTVSS | low polyreactivity
QVQLVESGGGLVQAGGSLRLICAASGSTFYRNVMGWYRQAPGKERELVAAISSGGSTYYADSVKGRFTISRDNAKNTVYLQMNSLKPEDTAVYYCAARKRYSYDYWGQGTQVTVSS | low polyreactivity
QVQLVESGGGLVQAGGSLRLICAASGSTITLYAMGWYRQAPGKERELVAAISGIGDSTYYADSVKGRFTISRDNAKNTVYLQMNSLKPEDTAVYYCAADGEYRYDWEYESWGQGTQLTVSS | low polyreactivity
QVQLVESGGGLVQAGGSLRLICAASGSTLFTYAMVWYRQAPGKERELVAAITSSGSTYYADSVKGRFTISRDNAKNTVYLQMNSLKQEDTAVYYCAVPGYRYTNYYYWGQGTQVTVSS | low polyreactivity
QVQLVESGGGLVQAGGSLRLICAASGSTLYTYAMGWYRQAPGKERELVATISWSGSSTYYADSVKGRFTISRDNAKNTVYLQMNSLKPEDTAVYYCAAPYHYWYRLDYWGQGTQVTVSS | high polyreactivity
QVQLVESGGGLVQAGGSLRLICAASGTFYYYAMGWYRQAHGNERELVAAISTSDTSTYYADSVKGRFTISRDNAKNTVYLQMNSLKPEDTAVYYCAADTYHNFDYWGQGTQVSVSS | low polyreactivity
QVQLVESGGGLVQAGGSLRLICAASGTTFPRYAMGWYRKAPGKERELVAAITRSGANTHYADSVKGRFTIPRDNAKNTVYLQMTSLKPEDTAVYYCAARIYWGYGTRYYYWGQGTQVTVSS | high polyreactivity
QVQLVESGGGLVQAGGSLRLICAASGYIFRYYVMGWYRQAPGKERELVAAITGIDGSTYYADSVKGRFTISRDNAKNTVYLQMNSLKPEDTAVYYCAAVIGDSSYTFYYDMDYWGQGTQVTVSS | low polyreactivity
QVQLVESGGGLVQAGGSLRLICAASGYIFVRNAMGWYRQAPGKERELVAAISGSGGSTYYADSVKGRFTISRDNAKNTVYLQMNSLKPEDTAVYYSAADYATVTWRGIAYDYWGQGTQVTVSS | low polyreactivity
QVQLVESGGGLVQAGGSLRLICAASGYTFDYNAMGWYRQAPGKEREFVAAIDWSGGNTYYADSVKGRFTISRDNAKNTVYLQMNSLKPEDTAVYYCNTVTEAVTRRYDYWGQGTQVTVSS | low polyreactivity
QVQLVESGGGLVQAGGSLRLICAASGYTFRGNAMGRYRPAPGKERELVAAISGSGTRTYYADSVKGRFTISRDNAKNTVYLQMNSLKPEDTAVYYCNAKSLYHYHSADFDYWGQGTQVTVSS | high polyreactivity
QVQLVESGGGLVQAGGSLRLICAASGYTFSDYAMGLYRQAPGKERELVAVISQSGGSTYYADSVKGRFTISRDNAKNTVYLQMNSLKPEDTAVYDCNVYPSRRRAVGESERYYWGQGTQVTVSS | high polyreactivity
QVQLVESGGGLVQAGGSLRLICAASGYTLGPYAMGWYRQAPGKERELVAAITSGGSTYYADSVKGRFPISRDNAKHTVYLQMNSLKPEDSAVYYCNKDKGWLAHSRIWLWYDYWGQGTQVTVSS | low polyreactivity
QVQLVESGGGLVQAGGSLRLICAASRGIFGQYVMGWYRQAPGKERELVAPISSGGNTYADSVKGRFTISRDNAKNTVYLHMNSLKPEDTAVYYCAAPLTGIVEYDYWGQGTQVTVSS | low polyreactivity
QVQLVESGGGLVQAGGSLRLICADYGRTFKWYAMGWYRQAPGKERELVAVITGLGGSTYYADSVKGRFTISRDNAKNTVYLQMKSLKPEDTAVYYCAARGYSHVASRLYYYWGQGNQVTVSS | high polyreactivity
QVQLVESGGGLVQAGGSLRLICAGSGSNFSYYAMGWYRQAPGKERELVAAITWSGGTTSYADSVKGRFTISRDNAKNTVYLQMNSLKPEDSAVNYFARSIYVVSAQYDYWGQGTQVTVSS | low polyreactivity
QVQLVESGGGLVQAGGSLRLICPASGITFVYYAMVWYRQSPGKEMELVATNTKSGVSTYYADSVKGRFTISRDNAKNTVYLQMNSLKPEDTAVYYCAKEVSYRFYWTYDYWGQGTKVTVSS | low polyreactivity
QVQLVESGGGLVQAGGSLRLIFAASGRTFFSYVMGWYIQAPGKERELVAAITWRGGSTYYADSVKGRFTISRDNAKNTVYLQMNSLKPEDTAVYYCAAPSHGSTSDRYYKFYYWGQGTQVTVSS | high polyreactivity
